In patent US20030182672A1:

How the values were obtained:
[1] = target: HER-2 protein (also designated neu and erbB-2), endogenous in human MDA-MB-468 cells (human) (UniProt P04626); test: FACS, fixed and permeabilized parental MDA-MB-468 cells, antibody at 1/100, Alexa Fluor 488 secondary
[2] = target: HER-2 protein (also designated neu and erbB-2), endogenous in human MDA-MB-468 cells (human) (UniProt P04626); test: FACS, MDA-MB-468 cells, irrelevant IgG2b control at 1/100, Alexa Fluor 488 secondary; background

Row | Geometric mean Fluorescence [1] | Mean Fluorescence [1] | Median Fluorescence [1] | Geometric mean Fluorescence [2] | Mean Fluorescence [2] | Substance
1 | 1090 | 1220 | 1180 | – | – | mouse Anti-erbB2 monoclonal antibody (Transduction Laboratories, Cat. No. E19420, an IgG2b isotype)
2 | – | – | – | 122 | 137 | irrelevant primary antibody MART-1, an IgG2b antibody (NeoMarkers)
